Assay results reported in patent US7462691.

Molecular target: recombinant secreted soluble PSCA with C-terminal 6XHis and MYC tag (human)
Assay: SPR (BIAcore), recombinant PSCA immobilised at low density (30 RU), mAb in solution

Chain of recombinant secreted soluble PSCA with C-terminal 6XHis and MYC tag (human) (chain, as listed by the source): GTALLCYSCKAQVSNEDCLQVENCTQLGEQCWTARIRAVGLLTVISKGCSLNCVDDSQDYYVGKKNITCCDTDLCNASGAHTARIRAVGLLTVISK

Kd: 1 nM
kon: 168000 M⁻¹ s⁻¹
Substance: anti-PSCA monoclonal antibody 1G8
